Some results are limits rather than exact numbers.

Here are results for 1 molecule from US20150337031A1 (CELYAD S A, published 2015).

Assay [1] has as its target T1, 13 amino acid sequence from human MEF2C (SEQ ID NO: 2), GNPNLLPLAHPSL (human).
T1 construct: Synthetic peptide (GenScript); Coated on the plate in ELISA, injected over the immobilised antibody in Biacore; also called wild-type peptide; antigen peptide
T1 peptide: GNPNLLPLAHPSL
The assay is described as follows: SPR, BIAcore T200, calculated as the inverse of Kd. The method, then:
(§1) Affinity of the antibody for the peptide was measured by using BIAcoreT200. After covalent coupling of the antibody onto the Series S Sensor Chip CM5, different concentrations (0.078, 0.781, 1.563, 3.125 and 6.250 μM) of peptide were injected serially over the antibody and blank flow cell at a flow rate of 30 μl/min. Association and dissociation phases were monitored for 30 and 150 seconds, respectively. Peptide with the concentration of 6.250 μM was set as repetition. The antibody surface was regenerated with 10 mM Glycine-HCl, pH2.0, 30 s injections 1 time.
(§2) About 10000 RU of antibody was immobilized on the sensor chip via primary amine groups. Binding data was processed, double referenced with response from blank injections, and fit to a 1:1 interaction model using the BIAcore T200 evaluation software.

The target of assay [2] is T2, alanine scanning mutant of the MEF2C peptide of SEQ ID NO: 2, asparagine at position 2 replaced by alanine (human).
T2 construct: Member of the alanine scanning peptide library; also called mutation at peptide position 2
T2 peptide: GAPNLLPLAHPSL
The assay is described as follows: indirect ELISA on coated alanine mutant peptides (FIG. 7). Here is the method:
(§3) ELISA was performed to map the epitope of the test antibody. The peptides were coated in 96-well microtiter plates at 4° C. for 16 h. The plates were then blocked with 5% MPBS at 37° C. for 2 h. After washed with PBS-T, 100 μl target/control antibody (0.5 μg/ml) was added and incubated at 37° C. for 2 h. The plates were washed with PBS-T and incubated with 100 μl of 0.1 μg/ml goat anti-mouse IgG (H+L) at 37° C. for 1 h. The plates were washed with PBS-T and incubated with rabbit anti goat IgG (H+L) [HRP] at 37° C. for 1 h. After washing the plate with PBS-T, the color was developed with 100 μl TMB substrate for 10 minutes. The reaction was stopped by adding 100 μl of 1 M HCl and the absorbance was measured at 450 nm using a spectrometer. […] A non-coated well was set as blank control and the peptide library incubated with the detection antibodies only was set as the negative control.
(§4) Thirteen mutant peptides were numbered in numerical order and their binding activity with target/control antibodies were determined by indirect ELISA. The non-specific binding between the peptide, the target antibody and rabbit anti-goat IgG [HRP] was determined. The non-specific binding between the peptide, goat anti-mouse IgG and rabbit anti-goat IgG [HRP] was determined as well.
(In an ELISA, binding on a coated surface is turned into a signal by an enzyme label.)

The target in assay [3] is T3, alanine scanning mutant of the MEF2C peptide of SEQ ID NO: 2, proline at position 3 replaced by alanine (human).
T3 construct: Member of the alanine scanning peptide library; also called mutation at peptide position 3
T3 peptide: GNANLLPLAHPSL
The description is as above. Here is the method:
as §3, §4

Assay [4] deals with T4, alanine scanning mutant of the MEF2C peptide of SEQ ID NO: 2, asparagine at position 4 replaced by alanine (human).
T4 construct: Member of the alanine scanning peptide library; also called mutation at peptide position 4
T4 peptide: GNPALLPLAHPSL
The assay is described as above. Here is the method: as §3, §4

Assay [5] deals with T5, alanine scanning mutant of the MEF2C peptide of SEQ ID NO: 2, leucine at position 5 replaced by alanine (human).
T5 construct: Member of the alanine scanning peptide library; also called mutation at peptide position 5
T5 peptide: GNPNALPLAHPSL
The assay is described as above. The method, then: as §3, §4

Assay [6] has as its target T6, Mutated peptide on Aa H (10th position).
T6 peptide: GNPNLLPLAAPSL
The assay is described as follows: indirect ELISA on coated peptide, antibody at 0.5 µg/ml, OD450. Here is the method: as §3, §4

For assay [7], the target named is T7, Mutated peptide on Aa P (11th position).
T7 peptide: GNPNLLPLAHASL
The description is as above. The method, then:
as §3, §4

Assay [8] concerns the target T8, Mutated peptide on Aa L (13th position).
T8 peptide: GNPNLLPLAHPSA
The assay is described as above. The method, then: as §3, §4

Assay [9] concerns the target T1, 13 amino acid sequence from human MEF2C …. The assay is described as follows: SPR, BIAcore T200, antibody coupled to CM5 chip, peptide injected, 1:1 model. The method, then: as §1, §2
For assay [10], the target named is T9, alanine scanning mutant of the MEF2C peptide of SEQ ID NO: 2, proline at position 7 replaced by alanine (human).
T9 construct: Member of the alanine scanning peptide library; also called mutation of the seventh residue; P7
T9 peptide: GNPNLLALAHPSL
The assay is described as follows: direct ELISA, relative quantification against a wild-type peptide standard curve (FIG. 8). The method, then: as §3
(§5) In addition to the alanine scanning, a relative quantification of binding was performed. Each of the mutated peptides was assayed in direct ELISA according to the procedures described above and compared to a standard curve performed with the wild-type peptide. Relative binding quantification was then performed as described previously. […] Therefore, considering the combination of the data obtained in FIGS. 7 and 8 an epitope target of the anti-MEF2C mAb is the following amino acid sequence: […]

The target in assay [11] is T10, alanine scanning mutant of the MEF2C peptide of SEQ ID NO: 2, glycine at position 1 replaced by alanine (human).
T10 construct: Member of the alanine scanning peptide library synthesised by GenScript; also called mutation of the first residue; G1
T10 peptide: ANPNLLPLAHPSL
The description is as above. Here is the method:
as §3, §5

The target in assay [12] is T2, alanine scanning mutant of the MEF2C …. Described as above. The method, then:
as §3, §5

In assay [13] the target is T3, alanine scanning mutant of the MEF2C …. The description is as above. The method, then: as §3, §5
Assay [14] has as its target T4, alanine scanning mutant of the MEF2C …. The assay is described as above. The method, then:
as §3, §5

Assay [15] deals with T5, alanine scanning mutant of the MEF2C …. The description is as above. Here is the method:
as §3, §5

The target of assay [16] is T11, Mutated peptide on Aa L (6th position).
T11 peptide: GNPNLAPLAHPSL
The assay is described as follows: ELISA on coated mutant peptide, relative quantification against a standard curve of the wild-type peptide. The method, then: as §3, §5

Assay [17] deals with T12, Mutated peptide on Aa L (8th position).
T12 peptide: GNPNLLPAAHPSL
The assay is described as above. The method, then:
as §3, §5

B1: anti-MEF2C monoclonal antibody produced by the hybridoma cell line deposited with BCCM/LMBP under Accession No. LMBP 9949CB (antibody, V domains shown)
VH: EVQLQQSGPELVKPGASVKISCKASAYSFTGYFMNWVKQSHGKSLEWIGRINPYNGNTFYNQNFKGKATLTVDRSSSTAHMQILSLTSEDSTVYYCGREGATGAMDYWGQGTSVTVLP
VL: DVVMTQTPLSLPVSLGDQASISCRSSQSLVHSNGDTYLHWYLQMPGQSPRLLIYKVSNRFSGVPDRFSGSGSGTDFTLKISRVEAEDLGVYFCSQSTHVPPTFGGGTKLEIK
notes: IgG from a mouse hybridoma (detected with anti-mouse IgG); also called anti-MEF2C mAb; α MEF2C
In the case of B1, the Ka in [1] is 6.37e+06 M⁻¹. Also, the binding result in [2] is “no binding (tested: 0.5 µg/ml antibody)”; in assay [3], “no binding (tested: 0.5 µg/ml antibody)”; in [4] it was “no binding (tested: 0.5 µg/ml antibody)”; in [5], “no binding (tested: 0.5 µg/ml antibody)”; in assay [6], “binds”; in [7] it was “binds”. Further, the binding result in [8], in assay [16] and in assay [17] was “binds” in each case. In addition, in [9], binding was put at a Kd of 157 nM. The koff in [9] was found to be 0.00367 s⁻¹. In assay [9], this molecule displayed a kon of 23400 M⁻¹ s⁻¹. For the same molecule, the “loss of binding relative to the wild-type peptide” value in assay [10] was determined as 96.4%; in assay [11], 92.9%. Besides, the “decrease of the binding relative to the wild-type peptide” value in assay [12], in assay [13], in assay [14] and in assay [15] was > 99% in each case.

For orientation: Kd means a measure of binding affinity in units of concentration. For orientation: koff means a measure of how fast the partners let go of each other. Read a high koff as fast dissociation. In general, kon refers to the second-order rate constant of association. A high value points to faster complex formation.
